According to patent publication US20150329627A1 (Eli Lilly, published 2015):
Numbering of substitutions follows the chain as printed.

Columns and labels:
[1] = molecular target: T1, human angiopoietin-2 (Ang2) (human, UniProt O15123 19-496); test: Biacore SPR, 25 C; reference 3.19.3-293HEK
T1 construct: Bought from R&D Systems (#623-AN); also called human Ang2; hAng2
T1 sequence: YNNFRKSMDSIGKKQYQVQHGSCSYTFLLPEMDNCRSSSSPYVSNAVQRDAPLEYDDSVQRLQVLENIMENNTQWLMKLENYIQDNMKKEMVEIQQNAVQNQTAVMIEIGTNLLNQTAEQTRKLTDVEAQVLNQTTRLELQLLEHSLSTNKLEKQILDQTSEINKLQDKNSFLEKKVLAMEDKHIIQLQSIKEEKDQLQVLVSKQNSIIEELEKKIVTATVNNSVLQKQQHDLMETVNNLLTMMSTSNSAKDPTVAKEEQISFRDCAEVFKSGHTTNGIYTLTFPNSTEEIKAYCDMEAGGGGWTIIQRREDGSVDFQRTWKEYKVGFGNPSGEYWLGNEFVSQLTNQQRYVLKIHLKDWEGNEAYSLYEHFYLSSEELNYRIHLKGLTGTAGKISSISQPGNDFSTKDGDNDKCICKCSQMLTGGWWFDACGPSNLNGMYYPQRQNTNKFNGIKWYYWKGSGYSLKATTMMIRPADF

[2] = molecular target: T1, human angiopoietin-2 (Ang2); test: KinExA 3200, solution equilibrium at 25 C, human Ang2 on sepharose beads
[3] = molecular target: T1, human angiopoietin-2 (Ang2); test: cell-based or functional assay
[4] = molecular target: T1, human angiopoietin-2 (Ang2); test: blocking ELISA: antibody titrated against biotinylated human Ang2 (100 ng/ml), binding to coated human Tie2-Fc read
[5] = molecular target: T1, human angiopoietin-2 (Ang2); test: Biacore SPR, 25 C; reference H1H685P-293HEK
[6] = molecular target: T1, human angiopoietin-2 (Ang2); test: KinExA; reference H1H685P-293HEK
[7] = molecular target: T1, human angiopoietin-2 (Ang2); test: Biacore SPR, 37 C, n = 3
dog Ang2 = molecular target: T2, dog Ang2 (dog, UniProt A0A8J8 19-495, limits assumed); test: Biacore SPR, 37 C, n = 3
T2 sequence (looked up): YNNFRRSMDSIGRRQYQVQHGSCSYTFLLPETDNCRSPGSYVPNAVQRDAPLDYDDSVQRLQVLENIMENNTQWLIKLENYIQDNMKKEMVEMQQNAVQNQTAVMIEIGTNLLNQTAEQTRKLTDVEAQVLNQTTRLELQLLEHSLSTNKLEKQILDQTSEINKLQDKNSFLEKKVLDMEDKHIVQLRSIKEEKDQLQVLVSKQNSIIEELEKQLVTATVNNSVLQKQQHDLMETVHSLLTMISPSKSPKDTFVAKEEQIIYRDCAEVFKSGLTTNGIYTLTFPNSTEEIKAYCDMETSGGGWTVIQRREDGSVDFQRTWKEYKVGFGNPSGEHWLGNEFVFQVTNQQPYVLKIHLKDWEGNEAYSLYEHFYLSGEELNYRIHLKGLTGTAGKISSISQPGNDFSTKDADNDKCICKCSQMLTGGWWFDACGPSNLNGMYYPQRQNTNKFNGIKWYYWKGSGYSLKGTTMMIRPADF

cyno Ang2 = molecular target: T3, cyno Ang2 (cynomolgus, UniProt A0A2K5VNX6 19-496); test: Biacore SPR, 37 C, n = 3
T3 construct: also called cynomolgus Ang2
T3 sequence: T1 sequence with E258G, I279V, F284L, I291V, G410A, A468G, D477G

rabbit Ang2 = molecular target: T4, rabbit Ang2 (rabbit, UniProt G1T9B3 19-496); test: Biacore SPR, 37 C, n = 3
T4 sequence: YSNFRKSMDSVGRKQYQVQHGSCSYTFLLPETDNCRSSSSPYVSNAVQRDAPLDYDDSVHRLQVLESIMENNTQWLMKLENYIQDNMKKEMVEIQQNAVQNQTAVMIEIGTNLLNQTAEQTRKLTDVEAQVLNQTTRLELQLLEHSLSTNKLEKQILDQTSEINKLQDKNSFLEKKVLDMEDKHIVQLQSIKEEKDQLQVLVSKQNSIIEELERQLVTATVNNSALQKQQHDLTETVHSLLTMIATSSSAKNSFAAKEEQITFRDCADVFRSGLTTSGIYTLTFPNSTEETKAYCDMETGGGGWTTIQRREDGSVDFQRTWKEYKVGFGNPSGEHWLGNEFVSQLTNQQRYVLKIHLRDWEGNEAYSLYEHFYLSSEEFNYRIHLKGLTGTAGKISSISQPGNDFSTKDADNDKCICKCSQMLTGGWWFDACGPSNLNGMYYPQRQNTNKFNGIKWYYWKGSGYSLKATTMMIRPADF

mouse Ang2 = molecular target: T5, mouse Ang2 (mouse, UniProt O35608 19-496, limits assumed); test: Biacore SPR, 37 C, n = 3
T5 sequence (looked up): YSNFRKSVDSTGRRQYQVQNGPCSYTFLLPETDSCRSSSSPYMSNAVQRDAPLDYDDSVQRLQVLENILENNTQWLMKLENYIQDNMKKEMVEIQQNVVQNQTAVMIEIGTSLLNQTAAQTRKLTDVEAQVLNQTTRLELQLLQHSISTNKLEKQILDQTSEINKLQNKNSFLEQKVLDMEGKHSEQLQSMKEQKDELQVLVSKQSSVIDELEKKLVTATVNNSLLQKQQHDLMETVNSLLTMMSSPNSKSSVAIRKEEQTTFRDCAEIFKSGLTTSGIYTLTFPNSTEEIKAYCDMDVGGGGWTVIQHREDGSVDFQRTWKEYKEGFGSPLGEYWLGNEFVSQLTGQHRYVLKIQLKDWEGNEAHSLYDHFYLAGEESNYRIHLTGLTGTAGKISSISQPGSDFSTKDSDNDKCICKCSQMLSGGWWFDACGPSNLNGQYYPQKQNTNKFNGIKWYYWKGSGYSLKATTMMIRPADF

rat Ang2 = molecular target: T6, rat Ang2 (rat, UniProt O35462 19-496, limits assumed); test: Biacore SPR, 37 C, n = 3
T6 sequence (looked up): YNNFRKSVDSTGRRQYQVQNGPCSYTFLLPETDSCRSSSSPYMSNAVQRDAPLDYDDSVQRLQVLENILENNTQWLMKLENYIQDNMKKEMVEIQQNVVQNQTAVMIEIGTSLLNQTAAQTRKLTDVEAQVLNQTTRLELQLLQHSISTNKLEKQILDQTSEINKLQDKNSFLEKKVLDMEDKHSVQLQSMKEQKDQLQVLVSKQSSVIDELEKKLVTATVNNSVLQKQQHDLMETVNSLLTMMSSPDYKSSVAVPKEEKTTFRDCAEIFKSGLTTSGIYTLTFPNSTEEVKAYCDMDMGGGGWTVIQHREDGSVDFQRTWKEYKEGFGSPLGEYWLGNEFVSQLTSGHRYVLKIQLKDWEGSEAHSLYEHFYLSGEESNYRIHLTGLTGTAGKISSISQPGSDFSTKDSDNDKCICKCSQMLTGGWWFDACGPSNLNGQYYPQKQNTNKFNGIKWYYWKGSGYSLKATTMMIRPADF

[8] = molecular target: T1, human angiopoietin-2 (Ang2); test: Biacore SPR, 25 C, antibody captured on Protein A, soluble Ang2 injected

B1: Antibody A (antibody, human IgG4 S228P, kappa, F234A L235A, V domains shown)
VH: QVQLVQSGAEVKKPGASVKVSCKASGYSFTDYNMVWVRQAPGQGLEWMGYIDPYNGGTGYNQKFEGRVTMTTDTSTSTAYMELRSLRSDDTAVYYCARTRDRYDVWYFDVWGQGTLVTVSS
VL: DIQMTQSPSSVSASVGDRVTITCKASQDVYIAVAWYQQKPGKAPKLLIYWASTRDTGVPSRFSGSGSGTDFTLTISSLQPEDFATYYCHQYSSYPPTFGGGTKVEIKR
For B1, the “fold lower KD than 3.19.3-293HEK” value [1] was about 8 fold, the Kd [2] was 0.11 pM and the “IC50, neutralization of human Ang2 induced phospho-Tie-2 in CHO-Tie-2 cells” value [3] was 773 pM. For the same binder, the IC50 [4] was 27 pM, the “fold lower KD than H1H685P-293HEK” value [5] was about 4 fold and the “fold lower KD than H1H685P-293HEK” value [6] was about 8 fold. It also gave a Kd [7] of 80 pM, a koff [7] of 7e-05 s⁻¹ and a kon [7] of 1e+06 M⁻¹ s⁻¹. For the same binder, the Kd (dog Ang2) was 140 pM, the koff (dog Ang2) was 0.00011 s⁻¹ and the kon (dog Ang2) was 790000 M⁻¹ s⁻¹. The Kd (cyno Ang2) was 107 pM, the koff (cyno Ang2) was 0.00029 s⁻¹ and the kon (cyno Ang2) was 2.7e+06 M⁻¹ s⁻¹. It also gave a Kd (rabbit Ang2) of 210 pM, a koff (rabbit Ang2) of 0.00015 s⁻¹ and a kon (rabbit Ang2) of 730000 M⁻¹ s⁻¹. The Kd (mouse Ang2) was 109 pM, the koff (mouse Ang2) was 0.00011 s⁻¹ and the kon (mouse Ang2) was 1e+06 M⁻¹ s⁻¹. The Kd (rat Ang2) was 180 pM, the koff (rat Ang2) was 0.0002 s⁻¹ and the kon (rat Ang2) was 1.2e+06 M⁻¹ s⁻¹. The Kd [8] was 38 pM, the koff [8] was 2.8e-05 s⁻¹ and the kon [8] was 747000 M⁻¹ s⁻¹.
